How the values were obtained:
Assay in all cases: IEDB peptide-MHC binding, purified MHC/competitive/radioactivity; ≥ and ≤ were set here for values at or beyond the usual limits of such assays
HLA-A*02:01 = target: HLA-A*02:01
HLA-A*02:02 = target: HLA-A*02:02
HLA-A*02:03 = target: HLA-A*02:03
HLA-A*02:06 = target: HLA-A*02:06
HLA-A*68:02 = target: HLA-A*68:02
[1] = source organism: Vaccinia virus WR
[2] = source organism: Mammarenavirus choriomeningitidis
[3] = source organism: Hepacivirus hominis

| Sequence | IC50 (HLA-A*02:01; [1]) | IC50 (HLA-A*02:02; [1]) | IC50 (HLA-A*02:03; [1]) | IC50 (HLA-A*02:06; [1]) | IC50 (HLA-A*68:02; [1]) | further results |
| --- | --- | --- | --- | --- | --- | --- |
| WLKDSAIMV | 326 nM | 191 nM | 28 nM | 2280 nM | 1010 nM | – |
| VITYCLVTHM | 1320 nM | 478 nM | 582 nM | 2620 nM | 387 nM | – |
| SIDHCSSFI | 246 nM | 631 nM | 13 nM | 199 nM | 27 nM | – |
| FTNSQIFNII | 1570 nM | 143 nM | 457 nM | 1200 nM | 16 nM | – |
| FTSDYPFYV | 1.5 nM | 2.1 nM | 3.9 nM | 3.6 nM | 1.1 nM | – |
| CTINVNSLAL | 1040 nM | 494 nM | 1040 nM | 216 nM | 517 nM | – |
| SISEINEWL | 1.9 nM | 0.13 nM | 1.8 nM | 6.3 nM | 1.3 nM | – |
| LMTLDDLAI | 74 nM | 52 nM | 76 nM | 288 nM | 4410 nM | – |
| IITILQDIV | 109 nM | 827 nM | 666 nM | 658 nM | 1070 nM | – |
| GMSIVCIVAA | 178 nM | 161 nM | 231 nM | 1220 nM | 1860 nM | – |
| FTFGDTALYV | 181 nM | 24 nM | 48 nM | 3.5 nM | 175 nM | – |
| GVMYAFTTPL | 83 nM | 34 nM | 44 nM | 45 nM | 2540 nM | – |
| FLLPLTSLVI | 0.84 nM | 11 nM | 5.1 nM | 2.5 nM | 1020 nM | – |
| ILPDKIDGL | 62 nM | 1 nM | 3.5 nM | 43 nM | 4000 nM | – |
| TLNTLITLI | 51 nM | 0.99 nM | 0.6 nM | 941 nM | 472 nM | – |
| IVAALVFLI | – | – | – | – | – | IC50 (HLA-A*02:01; source organism: SARS-CoV1): 2.1 nM; IC50 (HLA-A*02:02; source organism: SARS-CoV1): 0.14 nM; IC50 (HLA-A*02:03; source organism: SARS-CoV1): 15 nM; IC50 (HLA-A*02:06; source organism: SARS-CoV1): 1.8 nM; IC50 (HLA-A*68:02; source organism: SARS-CoV1): 0.58 nM |
| IISYIILFIL | 580 nM | 66 nM | 489 nM | 3930 nM | 2090 nM | – |
| LTNAISSRV | 916 nM | 146 nM | 19 nM | 145 nM | 16 nM | – |

| Sequence | IC50 (HLA-A*02:01; [1]) | IC50 (HLA-A*02:02; [1]) | IC50 (HLA-A*02:03; [1]) | IC50 (HLA-A*02:06; [1]) | IC50 (HLA-A*68:02; [1]) | further results |
| --- | --- | --- | --- | --- | --- | --- |
| YLYTEYFLFL | 0.069 nM | 0.085 nM | 0.56 nM | 0.007 nM | 76 nM | – |
| NLWNTFTRL | – | – | – | – | – | IC50 (HLA-A*02:01; source organism: SARS-CoV1): 6.9 nM; IC50 (HLA-A*02:02; source organism: SARS-CoV1): 24 nM; IC50 (HLA-A*02:03; source organism: SARS-CoV1): 194 nM; IC50 (HLA-A*02:06; source organism: SARS-CoV1): 166 nM; IC50 (HLA-A*68:02; source organism: SARS-CoV1): 391 nM |
| FLCLFLLPSL | – | – | – | – | – | IC50 (HLA-A*02:01; source organism: SARS-CoV1): 0.33 nM; IC50 (HLA-A*02:02; source organism: SARS-CoV1): 0.53 nM; IC50 (HLA-A*02:03; source organism: SARS-CoV1): 2.9 nM; IC50 (HLA-A*02:06; source organism: SARS-CoV1): 0.37 nM; IC50 (HLA-A*68:02; source organism: SARS-CoV1): 729 nM |
| NIPELKHGLL | 2560 nM | 2300 nM | 2700 nM | 1230 nM | 100 nM | – |
| ILATLNTLIT | 443 nM | 7 nM | 12 nM | 629 nM | 1860 nM | – |
| ETIQKDINIT | 1270 nM | 354 nM | 10 nM | 112 nM | 69 nM | – |
| AAAATCALV | 41 nM | 15 nM | 9.1 nM | 12 nM | 12 nM | – |
| LLALQQLEV | – | – | – | – | – | IC50 (HLA-A*02:01; source organism: SARS-CoV1): 1 nM; IC50 (HLA-A*02:02; source organism: SARS-CoV1): 0.14 nM; IC50 (HLA-A*02:03; source organism: SARS-CoV1): 0.29 nM; IC50 (HLA-A*02:06; source organism: SARS-CoV1): 42 nM; IC50 (HLA-A*68:02; source organism: SARS-CoV1): 83 nM |
| FVLALYSPPL | 979 nM | 2.2 nM | 38 nM | 212 nM | 263 nM | – |
| IVNTTYDFL | 1050 nM | 1880 nM | 4680 nM | 2990 nM | 750 nM | – |
| RVSENTGMGM | 766 nM | 839 nM | 89 nM | 146 nM | 66 nM | – |
| LMDSIFVSTM | 259 nM | 3.7 nM | 8.1 nM | 610 nM | 680 nM | – |
| KIILFLTLI | – | – | – | – | – | IC50 (HLA-A*02:01; source organism: SARS-CoV1): 141 nM; IC50 (HLA-A*02:02; source organism: SARS-CoV1): 68 nM; IC50 (HLA-A*02:03; source organism: SARS-CoV1): 4.9 nM; IC50 (HLA-A*02:06; source organism: SARS-CoV1): 24 nM; IC50 (HLA-A*68:02; source organism: SARS-CoV1): 378 nM |
| FSTSAYLISI | – | – | – | – | – | IC50 (HLA-A*02:01; [2]): 9 nM; IC50 (HLA-A*02:02; [2]): 0.68 nM; IC50 (HLA-A*02:03; [2]): 14 nM; IC50 (HLA-A*02:06; [2]): 3.5 nM; IC50 (HLA-A*68:02; [2]): 1.4 nM |
| MLVCGDDLVV | – | – | – | – | – | IC50 (HLA-A*02:01; [3]): 97 nM; IC50 (HLA-A*02:02; [3]): 45 nM; IC50 (HLA-A*02:03; [3]): 102 nM; IC50 (HLA-A*02:06; [3]): 157 nM; IC50 (HLA-A*68:02; [3]): 3060 nM |
| SLVSKHWEL | 2.7 nM | 1.2 nM | 36 nM | 35 nM | 378 nM | – |
| FISPASISSV | 1.4 nM | 3 nM | 0.11 nM | 2 nM | 17 nM | – |

From the Immune Epitope Database (IEDB)
